Test results: article PMC4215112 (Clinical and Experimental Allergy, 2014)

Tests used:
[1] = biological target: T1, Bet v 1 (isoform not stated for the experiment) (birch, UniProt P15494); test: ELISA; inhibition ELISA: binding of scFv-Fcε to immobilized Bet v 1 in the presence of the identified peptides in soluble form; conditions: one partner purified
T1 construct: also called immobilized Bet v 1

[2] = biological target: T2, Recombinant Aln g 1.0101 (Alnus glutinosa, isoform Aln g 1.0101, UniProt P38948); test: ELISA; allergens coated at 5 μg/mL in PBS; scFv-Fcε from HEK293 supernatant detected with HRP anti-IgE antiserum; duplicates; conditions: one partner purified
T2 construct: By its allergen name from Alnus glutinosa (alder); source: bought: Biomay (Vienna, Austria), recombinant
T2 sequence (P38948 whole entry, looked up, canonical isoform): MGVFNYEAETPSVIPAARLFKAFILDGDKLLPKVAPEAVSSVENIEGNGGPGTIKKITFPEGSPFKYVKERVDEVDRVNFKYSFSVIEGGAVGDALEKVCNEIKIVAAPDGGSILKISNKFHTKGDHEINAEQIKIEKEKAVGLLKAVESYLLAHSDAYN

Row | binding result [1] | binding result [2] | Binder
1 | binds |  | B14 scFv-Fcε fusion protein (Fc fusion, human, as the VH of m13; as the VL of m13; also called B14 scFv-CHε2-4 fusion protein; source: HEK293, transfected, in filtered supernatant; not shown: Fc (human IgE, second, third and fourth constant domains, CHε2-4), C-terminal, kept) VH: EVQLVQSGAEVKKPGESLKISCKGSEYSFPNYWIAWVRQMPGKGLEWMGMIYPGDSDTRYSPSFQGQVNISADKSSRTAFLEWSSLKASDSATYFCARLGGQLWNSYYYYYMDVWGKGTTVTVSS VL: QSVLTQPPSVSVSPGQTARITCSGDKLGNKYAAWYQQKPGQSPVLVIYQDSKRPSGIPERFSGSNSGNTATLTISGTQAMDEADYYCQAWDSSTFYVFGTGTKLTVL
2 | binds |  | B13 scFv-Fcε fusion protein (Fc fusion, as the VH of m12; as the VL of m12; also called B13 scFv-CHε2-4 fusion protein; source: HEK293, transfected, in filtered supernatant; not shown: Fc (human IgE, second, third and fourth constant domains, CHε2-4), C-terminal, kept) VH: not shown VL: SYELTQPPSVSGSPGQSVTISCTGTSSDVGGYNLVSWYQQHPGKAPRLMIYEDTKRPSGVSHRFSGSKSGNTASLTISGLQAEDEADYYCYSYATGRPSRLFGGGTKLTVL
3 | binds | no binding | M0418 scFv-Fcε fusion protein (Fc fusion, human, as the VH of m14; (Gly4Ser)3 linker as told for the M0418 scFv construct, written out from the printed formula; as the VL of m14; also called the M0418 construct; IgE clone M0418; source: HEK293, transfected, in filtered supernatant; not shown: Fc (human IgE, second, third and fourth constant domains, CHε2-4), C-terminal, kept) VH: QVQLVQSGAEVKKPGESLKISCKGSEYSFPNYWIAWVRQMPGKGLEWMGMIYPGDSDTRYSPSFQGQVNISADKSSRTAFLEWSSLKASDSATYFCARLGGQLWNSYYYYYYMDVWGKGTTVTVSS VL: SYELTQPPSASGTPGQRVTISCSGSSSNIGGNTVNWYQQVPGTAPRLLIYKNNQRPSGVPDRFSGSKSGTSASLAISGLRSEDEADYYCEAWDGGLRGGVFGGGTKLTVL
